# Where two headings read alike, the source gives them in different places.
# B1: DG_3CH1047-SG182/3CL658-SK1 (antibody, human IgG1, kappa, V domains shown)
# VH: QVQLVQSGPDVEKPGASVKVSCKASGYTFTSYYMHWVRQAPGQGLEWMGVINPRGGSRRSAQKFQGRITMTRDTSTSTVYMELSSLRSEDTAVYYCARGGEALFYDSYTTPFDGGSWWFDPWGQGSLVTVSS
# VL: DIQLTQSPSSLSASVGDRVTFTCQASQEIRKYLNWYQQKPGKAPKLLIYDASELKTGVPSRFSGSGSGTDFTFTISSLQPEDVATYYCQQFEDLPITFGQGTRLQIKR
# notes: also called 3Cam
# Key:
# [1] = target: T1, Recombinant soluble E protein (0.8E-His) from DENV-1 (DENV-1, UniProt P27909 281-675)
# T1 construct: also called DENV-1 E protein; DV1
# [2] = target: T2, Recombinant soluble E protein (0.8E-His) from DENV-4 (DENV-4, UniProt P09866 280-674)
# T2 construct: also called DENV-4 E protein; DV4
# [3] = target: T3, Recombinant soluble E protein (0.8E-His) from DENV-2 (DENV-2, UniProt P14340 281-675)
# T3 construct: also called DENV-2 E protein; DV2
# [4] = target: T1, Recombinant soluble E protein …; remark: listed apart in the source
# [5] = target: T4, Recombinant soluble E protein (0.8E-His) from DENV-3 (DENV-3, UniProt P27915 281-673)
# T4 construct: also called DENV-3 E protein; DV3
# [6] = target: T4, Recombinant soluble E protein …; remark: listed apart in the source
binder,measurement,setting,value
B1,Kd,[1],3.51 nM
same,Kd,[2],9.11 nM
same,Kd,[3],0.765 nM
same,Kd,[4],2.98 nM
same,Kd,[5],0.00501 nM
same,Kd,[6],0.00382 nM

# — patent US20190218277A1 (Chugai, published 2019)
